{
  "source": "patent US20070298997A1",
  "about": "“Compounds useful in treating diabetic microvascular complications and age-related macular degeneration” (priority 2003, published 2007)",
  "key": {"[1]": {"test_system": "rat Müller cell line, rMC-1", "test": "Quantification of viable cells by MTT assay, Müller cell line", "type": "cell-based", "details": "5-160 nM, 72 h, P>0.05", "protocol": "FIG. 2 illustrates the specific inhibition of endothelial cell proliferation by recombinant kallistatin. RCEC were treated with recombinant kallistatin at concentrations of 5,10, 20, 40, 80 and 160 nM for 72 h. Viable cells were quantified by MTT assay. […] This effect appeared to be kallistatin concentration-dependent, with an apparent IC50 of 50 nM (FIG. 2) which is similar to that of K5, a known angiogenic inhibitor (Zhang et al., 2001).\nQuantification of viable cells: Cells were plated in 12-well plates in triplicate and cultured in the growth medium until they reached 60-70% of confluency. The culture medium was replaced with a medium containing 1% fetal bovine serum (FBS). Recombinant kallistatin was added to the cover medium to various concentrations and incubated with the cells for 72 h. The viable cells were quantified by the MTT (3-[4,5-dimethylthiazol-2-yl]-2,5-dephenyl tetrazolium bromid, Roche, Mannheim, Germany) assay following a protocol recommended by the manufacturer. The effect of kallistatin on viable cell number was analyzed using Student's t test."}, "[2]": {"test_system": "PEDF", "test": "PEDF secretion in HMC under high glucose (ELISA)", "type": "cell-based, human", "details": "30 mM glucose, 3 days", "protocol": "FIG. 13 illustrates prevention of the high glucose-induced decrease of PEDF in HMC by kallistatin. HMC were treated with high glucose (30 mM) in the presence of different concentrations of kallistatin for 3 days. Control cells were treated with 5 mM glucose and 5 mM glucose+25 mM mannitol as an osmolarity control. PEDF secretion into the medium was measured by ELISA (mean±SD, n=3).\nKallistatin up-regulates endogenous anti-inflammatory factors in the kidney. Pigment epithelium-derived factor (PEDF) is an anti-angiogenic factor. Recently, the inventor has shown that PEDF also has anti-inflammatory activities and has a protective effect against DN (see U.S. Ser. No. 10/963,115, filed Oct. 12, 2004, the contents of which are hereby expressly incorporated herein by reference). Decreased PEDF levels in diabetic kidney may contribute to the development of DN. The effect of kallistatin on PEDF expression has been determined in kidney cells. HMC were treated with high glucose (30 mM glucose) with different concentrations of kallistatin for 3 days. The PEDF levels in the cultured medium were measured by ELISA specific for PEDF."}, "[3]": {"test_system": "VEGF", "test": "VEGF in RCEC cell lysate by Western blot", "type": "cell-based, bovine", "details": "RCEC under hypoxia, 24 h, 40-640 nM", "protocol": "(§1) FIG. 9 illustrates down-regulation of VEGF expression by kallistatin. As increased VEGF levels in the retina and vitreous play a key role in the development of retinal neovascularization, the effect of kallistatin on the expression of VEGF in cultured RCEC was determined. VEGF secreted into the conditioned medium was measured by VEGF ELISA and normalized by total protein concentration in the medium.\nMeasurement of VEGF in the conditioned medium of RCEC by ELISA: RCEC were seeded in T75 flasks in endothelial cell growth medium and cultured in a CO2 incubator to reach 60-70% confluency. The cells were washed 3 times with PBS and the growth medium replaced by a serum-free medium containing bFGF (GIBCO-BRL, Gaithersburg, Md.). Kallistatin was added to the medium to various concentrations and incubated with the cells for 24 h under normoxia or hypoxia (in a chamber that was perfused with a mixture of 95% N2+5% CO2). The conditioned medium was harvested for VEGF ELISA and the cells were used for Western blot analysis. The conditioned medium was centrifuged and the protein concentration in the supernatant was measured with BioRad protein assay. VEGF concentration was measured using a VEGF ELISA kit (R& D systems, Minneapolis, Minn.) and normalized by total protein concentration in the medium. […]"}, "[4]": {"test_system": "VEGF", "test": "VEGF in the conditioned medium of RCEC by ELISA", "type": "cell-based, bovine", "details": "RCEC under hypoxia, 24 h, 5-80 nM", "protocol": "as §1\nMeasurement of VEGF in the conditioned medium of RCEC by ELISA: RCEC were seeded in T75 flasks in endothelial cell growth medium and cultured in a CO2 incubator to reach 60-70% confluency. The cells were washed 3 times with PBS and the growth medium replaced by a serum-free medium containing bFGF (GIBCO-BRL, Gaithersburg, Md.). Kallistatin was added to the medium to various concentrations and incubated with the cells for 24 h under normoxia or hypoxia (in a chamber that was perfused with a mixture of 95% N2+5% CO2). The conditioned medium was harvested for VEGF ELISA and the cells were used for Western blot analysis. The conditioned medium was centrifuged and the protein concentration in the supernatant was measured with BioRad protein assay. VEGF concentration was measured using a VEGF ELISA kit (R& D systems, Minneapolis, Minn.) and normalized by total protein concentration in the medium."}, "[5]": {"test_system": "primary human mesangial cells (HMC)", "test": "High glucose-induced fibronectin secretion in HMC (ELISA)", "type": "cell-based", "details": "30 mM glucose, 25 to 1600 nM, 3 days", "protocol": "FIG. 11 illustrates blockage of high glucose-induced fibronectin secretion by kallistatin in human mesangial cells (HMC). Primary HMC was treated with high glucose (30 mM) in the presence of different concentrations of kallistatin as indicated for 3 days. Control cells were cultured in 5 mM glucose. To overcome the osmolarity difference, mannitol control cells were treated with 25 mM mannitol+5 mM glucose under the same conditions. Fibronectin secreted into the culture medium was measured by ELISA (mean±SD, n=3).\nCultured primary human mesangial cells (HMC) were treated with 30 mM glucose in the absence or presence of different concentrations of kallistatin (25-1600 nM) for 3 days. Cells cultured in 5 mM glucose were used as a control. To exclude the possible effect of osmolarity from high glucose, an osmolarity control was also included which was treated with 5 mM glucose and 25 mM mannitol. After the treatments for 3 days, secretion of fibronectin into the culture medium was measured."}, "[6]": {"test_system": "retina", "test": "Retinal toxicity after intravitreal injection (histology of retinal sections)", "type": "in vivo, Brown Norway rats", "protocol": "Induction of retinal neovascularization and intravitreal injection of kallistatin: Retinal neovascularization was induced as described by Smith et al. (Smith et al., 1994) with some modifications. Briefly, newborn pigmented Brown Norway rats at postnatal day 7 (P7) were exposed to hyperoxia (75% O2) for 5 days and then normoxia. Animals were anesthetized, and kallistatin was injected into the vitreous of the right eye through the pars plana using a glass capillary. The left eye received the same volume of PBS as the control. After injection, the animals were kept in normoxia for another 5 days for further analyses."}, "[7]": {"test_system": "RCEC", "test": "[3H] thymidine incorporation assay", "type": "cell-based, bovine", "details": "5 to 160 nM", "protocol": "[^3H] thymidine incorporation assay: RCEC were seeded in 24-well plates in 1:1 DMEM +F-12 nutrient mixture plus 10% FBS and cultured in a CO2 incubator to reach 60-70% confluency. The cells were washed 3 times with PBS and the growth medium replaced by a medium containing 1% FBS and different concentrations of kallistatin. After 24 h culture, [^3H] thymidine was added to the medium (2 μCi/well) and incubated with the cells at 37° C. for 12 h. Free [^3H] thymidine was removed by 3 washes with PBS, and a solution of 6% TCA was added to the wells. The TCA solution was removed, and the wells were washed once with PBS. The remaining material was solubilized with 200 μl of 1 M NaOH (Smith et al., 1999). Incorporated [^3H] thymidine was measured with a microplate scintillation counter (Packard Instrument Company, Meriden, Conn.)."}},
  "note": "Entries after “also recorded” stand apart in the source; their conditions may differ.",
  "data": [
    {"molecule": "kallistatin: Recombinant His-tagged rat kallistatin (serpin, SEQ ID NO:1) expressed in E. coli and affinity-purified (protein, listed as Homo sapiens, His tag) DGILGRDTLPHEDQGKGRQLHSLTLASINTDFTLSLYKKLALRNPDKNVVFSPLSISAALAILSLGAKDSTMEEILEVLKFNLTEITEEEIHHQGFGHLLQRLSQPEDQAEINTGSALFIDKEQPILSEFQEKTRALYQAEAFVADFKQCNEAKKFINDYVSNQTQGKIAELFSELDERTSMVLVNYLLFKGKWKVPFNPNDTFESEFYLDEKRSVKVPMMKIKDLTTPYIRDEELSCSVLELKYTGNASALFILPDQGKMQQVESSLQPETLKKWKDSLRPRIISELRMPKFSISTDYNLEEVLPELGIRKIFSQQADLSRITGTKNLHVSQVVHKAVLDVDETGTEGAAATAVTAALKSLPQTIPPLNFNRPFMLVITDNNGQSVFFMGKVTNPM", "values": [
      {"measurement": "inhibition of the Müller cell line (viable cells)", "setting": "[1]", "result": "did not result in any significant inhibition"},
      {"measurement": "PEDF levels in the cultured medium", "setting": "[2]", "result": "prevents the decrease of PEDF under the high glucose insult"},
      {"measurement": "PEDF levels in the cultured medium", "setting": "[2]; listed as Kallistatin", "result": "reversed the changes of PEDF under high glucose conditions"},
      {"measurement": "VEGF levels in the cell lysate", "setting": "[3]", "result": "reduced VEGF levels in the cell lysate of RCEC in a concentration-dependent manner"},
      {"measurement": "VEGF secreted into the conditioned medium", "setting": "[4]", "result": "reduced VEGF in the medium"},
      {"measurement": "fibronectin production (secretion into medium)", "setting": "[5]", "result": "concentration-dependent decrease of fibronectin production; also recorded: fibronectin was significantly lower than the high glucose alone"},
      {"measurement": "inflammatory response or toxicity to retinal tissues and normal vasculature", "setting": "[6]; intravitreal injection", "result": "does not cause any detectable inflammatory response or toxicity"},
      {"measurement": "histological evidence of retinal toxicity", "setting": "[6]; retinal sections after intravitreal injection", "result": "No apparent histological evidence of retinal toxicity"},
      {"measurement": "thymidine incorporation (cell proliferation rate)", "setting": "[7]", "result": "inhibited thymidine incorporation in RCEC in a concentration-dependent manner"}
    ]}
  ]
}
